Consider 1 molecule from patent publication US20050112564A1 (published 2005).

No end group written: not given here. *: point of attachment. FITC = O=C1OC2(c3ccc(O)cc3Oc3cc(O)ccc32)c2ccc(NC(=S)*)cc21

This experiment concerns the target T1, avidin (UniProt P02701 25-152).
T1 construct: also called avidin of a bar code 01
Briefly: FITC-peptide incubated with protein-coated bar-coded carriers; fluorescence read in flow tube. The method, then:
Carriers of 15 mm in length having a bar code 01 or 02 were prepared by using polymethylmethacrylate fibers as a raw material and introducing carboxyl groups on the surface thereof in the same manner as in Example 1. As in Example 1, 50 carriers having a bar code 01 were dispersed in 10 ml HEPES buffer, 100 μmol hydroxysuccinimide was added thereto, followed by the addition of 100 μmol WSC to succinimidate carboxyl groups, and after washing the carriers with the same buffer, 10 ml of a buffer containing 1 μmol/ml avidin was immediately added thereto to immobilize avidin on the carriers. The carriers were subjected to blocking in 1% BSA solution, and washed with distilled water to prepare carriers to which avidin is bound and which have a bar code 01.
Similarly, a FITC-labeled polypeptide having the […] shown in SEQ ID NO: 7 which consists of 15 amino acids without containing avidin-binding peptide sequence and having FITC at the amino-terminus was synthesized and dissolved in PBS containing 0.1% BSA at a concentration of 2 nmol/ml to prepare a test sample solution.
An apparatus shown in FIGS. 1 and 2 was prepared, and the bar code and fluorescence were detected while passing the solutions prepared in (3) above through a hollow tube in the detection device. As the bar code reader, a hand laser scanner SL-114 (product of Nichiei Intec) was used. […]

T1 sequence (P02701 25-152 limits assumed): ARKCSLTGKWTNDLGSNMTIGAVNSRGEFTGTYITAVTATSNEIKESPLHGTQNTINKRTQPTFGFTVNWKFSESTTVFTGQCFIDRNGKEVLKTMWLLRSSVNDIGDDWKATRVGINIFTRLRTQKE

B1: FITC-labeled polypeptide of SEQ ID NO: 7 (15 amino acids without avidin-binding peptide sequence) (peptide)
peptide: {FITC}-ISFENTWLWTSPFSS
Regarding B1, the binding result was “no binding”.
